# Measurements as given in the supplement of paper PMC10567573.
# ± gives the standard deviation.
# Assay: protein stability index of a GFP-peptide fusion (GPS, HEK-293T) (PSI 1-6); higher = more stable
# Conditions: c terminus: a fixed tail appended
# 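Note: 24-mer peptide tiles fused after GFP, lentivirally expressed, FACS-sorted into six equal bins by GFP/DsRed ratio, decoded by Illumina sequencing, PSI is the read-weighted mean bin number.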
Sequence,protein stability index (treatment: DMSO),"protein stability index (treatment: MLN4924 1 uM, 8 h)"
KAGSSEWLAVDGLVSPSNNSKEDA [ATF4],5.13 ± 0.19,5.14 ± 0.25
KAHSGRIPISLETQAHIQECKHPS [MCOLN1],4.5 ± 0.12,4.65 ± 0.14
KAMLQLHERGLKLHQTIYNQACKL [INTS4],2.23 ± 0.44,2.21 ± 0.26
KAQIWDTAGQERYRAITSAYYRGA [RAB11A],2.88 ± 0.16,2.98 ± 0.31
KARSYSYPHCTGISQQDPESDSQG [ZC2HC1C],5.28 ± 0.28,5.25 ± 0.076
KAVEEELDAEDRPAWNSKLQYILA [SLC6A17],2.96 ± 0.38,3.15 ± 0.24
KCLKFLGSRHPTLVLPLVPELLST [INTS4],2.29 ± 0.41,2.23 ± 0.18
KDGKNWNSNQATDIMETSGWKSMI [SPOPL],3.38 ± 0.32,3.54 ± 0.4
KDIAPEKQLLNSAVIAQQRRKPDP [DLC1],5 ± 0.086,5.25 ± 0.17
KDVMEKREDSKEAEKSGEATDGAR [CHGA],5.79 ± 0.11,5.68 ± 0.37
KEASRHAIMRSPQMVSAIVRTMQN [CTNNB1],3.15 ± 0.32,3.3 ± 0.35
KECVSILPRKESPSVRSSKDGKLL [TNFSF13B],4.53 ± 0.11,4.56 ± 0.091
KEDLIIPHHHSFYDFIVTKARGKS [FAM50A],3.4 ± 0.095,3.73 ± 0.16
KEIESQGSIPGFLISSGMSSHKQG [TAF7L],4.42 ± 0.2,4.11 ± 0.48
KEVGSHFDDFVTNLIEKSASLDNG [SOAT1],4.19 ± 0.26,4.46 ± 0.37
KFKGWVSYSTSEQAELSYKKVSEG [DLC1],3.52 ± 0.22,3.54 ± 0.39
KFYAVLKGTILYLQKDEYRPDKAL [PSD2],2.83 ± 0.53,2.58 ± 0.44
KIKDARKGPLVPFPNQKSEAAEPP [KMT5A],4.95 ± 0.22,5.11 ± 0.19
KIKDEVHPEVKCVGSVALTALVTV [C8orf76],2.61 ± 0.26,2.11 ± 0.85
KIYFTDSSSKWQRRDYLLLVMEGT [APMAP],2.68 ± 0.45,2.15 ± 0.37
KKVLNLLKGAFPARLKKVLIVGAP [PTPN9],2.81 ± 0.83,2.99 ± 0.43
KLDPTLSSCFFIESCGAQVPVEGS,3.02 ± 0.41,3.04 ± 0.5

Sequence,protein stability index (treatment: DMSO),"protein stability index (treatment: MLN4924 1 uM, 8 h)"
KLKESTVRRRYSDFEWLRSELERE [SNX3],2.99 ± 0.44,3.13 ± 0.31
KLNCDPSRIYKPQTRLKRKQPVRK [DFFB],3.36 ± 0.56,3.71 ± 0.63
KLPFCAMGVSSVIHPKNPHAPTIH [CPOX],2.52 ± 0.2,2.52 ± 0.31
KLPLPIALRSHLKSFSMANGLNAR [RAB40B],2.41 ± 0.23,2.46 ± 0.19
KLWSFFIYLLRRQIRTVIQYQTVR [CTDNEP1],2.99 ± 0.3,2.94 ± 0.37
KNEPYLEAACNDVDRWPAPVPGKT [DENND6A],4.62 ± 0.23,4.67 ± 0.19
KNTFEFLKENNFQPYPLPHVRHMA [CLK3],2.54 ± 0.26,2.51 ± 0.12
KPASKPAGSSHTPSSQSSSGGGRD [ELOA2],5.47 ± 0.3,5.48 ± 0.19
KPKTTNIELQGVPNDEVHPLLGVK [RBBP5],4.65 ± 0.7,4.75 ± 0.34
KPPYSYATLICMAMQASKATKITL [FOXJ1],2.78 ± 0.57,2.8 ± 0.53
KRQVTHFQFLSWPDYGVPSSAASL [PTPN9],2.21 ± 0.35,2.38 ± 0.18
KRYSMYLTPKGGVRTSYQPSSPGR [TRIM29],3.15 ± 0.28,3.37 ± 0.41
KSAAMLAVFAVSAVVHEYALAVCL [SOAT1],3.22 ± 0.64,3.32 ± 0.54
KSLEWSPWNCILLTKDEAAAHLKL [IQUB],2.41 ± 0.22,2.56 ± 0.11
KSTWPRYSKPGLSMRLLESKKGLS [TCF25],2.92 ± 0.34,3.12 ± 0.17
KTRTVFSSTQLCVLNDRFQRQKYL [NANOGP8],2.5 ± 0.12,2.67 ± 0.29
KVIYDFIEKTGGVEAVKNELRRQA [WASL],2.13 ± 0.41,2.28 ± 0.23
KVNQNQAKRCTVIGGSGFLGQHMV [NSDHL],2.22 ± 0.21,2.07 ± 0.2
KWTGDFFNKGIYDIHVGLRGVPLL [CLCN6],2.86 ± 0.8,2.24 ± 0.44
LAAPSLHVKEQLPCAGLNCQALDA [TLE6],3.92 ± 0.25,3.97 ± 0.28
LAGGLCVGIYATNSAEACQYVITH [ACSBG2],2.84 ± 1.1,2 ± 0.36
LAPVRQQELASLLRTYLARLPWAG [PBXIP1],2.22 ± 0.28,2.12 ± 0.27
